This note sets out measurements from US20210388087A1 (Chugai, published 2021).

T1: Human CD3eg linker (human)
T1 construct: Single chain: epsilon and gamma subunits of human CD3 joined by a 29-mer linker, Flag-tag at the C-terminus; also called recombinant human CD3
T1 chain: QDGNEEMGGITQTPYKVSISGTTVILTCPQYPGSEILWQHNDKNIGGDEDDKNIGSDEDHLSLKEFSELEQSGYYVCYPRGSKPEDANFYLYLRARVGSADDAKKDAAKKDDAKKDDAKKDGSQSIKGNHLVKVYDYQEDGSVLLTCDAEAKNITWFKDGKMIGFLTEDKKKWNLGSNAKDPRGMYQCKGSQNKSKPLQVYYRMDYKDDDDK

B1: H183/L072 VH A60L (antibody, name in Kabat numbering, V domains shown)
VH: QVQLVESGGGLVQPGRSLRLSCAASGFTFSNAWMHWVRQAPGKGLEWVAQIKDKGNAYAAYYLPSVKGRFTISRDDSKNSIYLQMNSLKTEDTAVYYCHYVHYASASTVLPAFGVDAWGQGTTVTVSS
VL: DIVMTQSPLSLPVTPGEPASISCQASQELVHMNRNTYLHWYQQKPGQAPRLLIYKVSNRFPGVPDRFSGSGSGTDFTLKISRVEAEDVGVYYCAQGTSVPFTFGQGTKLEIK
B2: H183/L072 VH A60W (antibody, name in Kabat numbering, V domains shown)
VH: QVQLVESGGGLVQPGRSLRLSCAASGFTFSNAWMHWVRQAPGKGLEWVAQIKDKGNAYAAYYWPSVKGRFTISRDDSKNSIYLQMNSLKTEDTAVYYCHYVHYASASTVLPAFGVDAWGQGTTVTVSS
VL: DIVMTQSPLSLPVTPGEPASISCQASQELVHMNRNTYLHWYQQKPGQAPRLLIYKVSNRFPGVPDRFSGSGSGTDFTLKISRVEAEDVGVYYCAQGTSVPFTFGQGTKLEIK
B3: H183/L072 VH A60Q (antibody, name in Kabat numbering, V domains shown)
VH: QVQLVESGGGLVQPGRSLRLSCAASGFTFSNAWMHWVRQAPGKGLEWVAQIKDKGNAYAAYYQPSVKGRFTISRDDSKNSIYLQMNSLKTEDTAVYYCHYVHYASASTVLPAFGVDAWGQGTTVTVSS
VL: DIVMTQSPLSLPVTPGEPASISCQASQELVHMNRNTYLHWYQQKPGQAPRLLIYKVSNRFPGVPDRFSGSGSGTDFTLKISRVEAEDVGVYYCAQGTSVPFTFGQGTKLEIK
B4: H183/L072 VH A60S (antibody, name in Kabat numbering, V domains shown)
VH: QVQLVESGGGLVQPGRSLRLSCAASGFTFSNAWMHWVRQAPGKGLEWVAQIKDKGNAYAAYYSPSVKGRFTISRDDSKNSIYLQMNSLKTEDTAVYYCHYVHYASASTVLPAFGVDAWGQGTTVTVSS
VL: DIVMTQSPLSLPVTPGEPASISCQASQELVHMNRNTYLHWYQQKPGQAPRLLIYKVSNRFPGVPDRFSGSGSGTDFTLKISRVEAEDVGVYYCAQGTSVPFTFGQGTKLEIK
B5: H183/L072 VH A98M (antibody, name in Kabat numbering, V domains shown)
VH: QVQLVESGGGLVQPGRSLRLSCAASGFTFSNAWMHWVRQAPGKGLEWVAQIKDKGNAYAAYYAPSVKGRFTISRDDSKNSIYLQMNSLKTEDTAVYYCHYVHYMSASTVLPAFGVDAWGQGTTVTVSS
VL: DIVMTQSPLSLPVTPGEPASISCQASQELVHMNRNTYLHWYQQKPGQAPRLLIYKVSNRFPGVPDRFSGSGSGTDFTLKISRVEAEDVGVYYCAQGTSVPFTFGQGTKLEIK
B6: H183/L072 VH A60M (antibody, name in Kabat numbering, V domains shown)
VH: QVQLVESGGGLVQPGRSLRLSCAASGFTFSNAWMHWVRQAPGKGLEWVAQIKDKGNAYAAYYMPSVKGRFTISRDDSKNSIYLQMNSLKTEDTAVYYCHYVHYASASTVLPAFGVDAWGQGTTVTVSS
VL: DIVMTQSPLSLPVTPGEPASISCQASQELVHMNRNTYLHWYQQKPGQAPRLLIYKVSNRFPGVPDRFSGSGSGTDFTLKISRVEAEDVGVYYCAQGTSVPFTFGQGTKLEIK
B7: H183/L072 VH A60R (antibody, name in Kabat numbering, V domains shown)
VH: QVQLVESGGGLVQPGRSLRLSCAASGFTFSNAWMHWVRQAPGKGLEWVAQIKDKGNAYAAYYRPSVKGRFTISRDDSKNSIYLQMNSLKTEDTAVYYCHYVHYASASTVLPAFGVDAWGQGTTVTVSS
VL: DIVMTQSPLSLPVTPGEPASISCQASQELVHMNRNTYLHWYQQKPGQAPRLLIYKVSNRFPGVPDRFSGSGSGTDFTLKISRVEAEDVGVYYCAQGTSVPFTFGQGTKLEIK
B8: H183/L072 VH A60T (antibody, name in Kabat numbering, V domains shown)
VH: QVQLVESGGGLVQPGRSLRLSCAASGFTFSNAWMHWVRQAPGKGLEWVAQIKDKGNAYAAYYTPSVKGRFTISRDDSKNSIYLQMNSLKTEDTAVYYCHYVHYASASTVLPAFGVDAWGQGTTVTVSS
VL: DIVMTQSPLSLPVTPGEPASISCQASQELVHMNRNTYLHWYQQKPGQAPRLLIYKVSNRFPGVPDRFSGSGSGTDFTLKISRVEAEDVGVYYCAQGTSVPFTFGQGTKLEIK
B9: H183/L072 VH A60Y (antibody, name in Kabat numbering, V domains shown)
VH: QVQLVESGGGLVQPGRSLRLSCAASGFTFSNAWMHWVRQAPGKGLEWVAQIKDKGNAYAAYYYPSVKGRFTISRDDSKNSIYLQMNSLKTEDTAVYYCHYVHYASASTVLPAFGVDAWGQGTTVTVSS
VL: DIVMTQSPLSLPVTPGEPASISCQASQELVHMNRNTYLHWYQQKPGQAPRLLIYKVSNRFPGVPDRFSGSGSGTDFTLKISRVEAEDVGVYYCAQGTSVPFTFGQGTKLEIK
B10: H183/L072 VH A100L (antibody, name in Kabat numbering, V domains shown)
VH: QVQLVESGGGLVQPGRSLRLSCAASGFTFSNAWMHWVRQAPGKGLEWVAQIKDKGNAYAAYYAPSVKGRFTISRDDSKNSIYLQMNSLKTEDTAVYYCHYVHYASLSTVLPAFGVDAWGQGTTVTVSS
VL: DIVMTQSPLSLPVTPGEPASISCQASQELVHMNRNTYLHWYQQKPGQAPRLLIYKVSNRFPGVPDRFSGSGSGTDFTLKISRVEAEDVGVYYCAQGTSVPFTFGQGTKLEIK
B11: H183/L072 VH A98P (antibody, name in Kabat numbering, V domains shown)
VH: QVQLVESGGGLVQPGRSLRLSCAASGFTFSNAWMHWVRQAPGKGLEWVAQIKDKGNAYAAYYAPSVKGRFTISRDDSKNSIYLQMNSLKTEDTAVYYCHYVHYPSASTVLPAFGVDAWGQGTTVTVSS
VL: DIVMTQSPLSLPVTPGEPASISCQASQELVHMNRNTYLHWYQQKPGQAPRLLIYKVSNRFPGVPDRFSGSGSGTDFTLKISRVEAEDVGVYYCAQGTSVPFTFGQGTKLEIK
B12: H183/L072 VH A100I (antibody, name in Kabat numbering, V domains shown)
VH: QVQLVESGGGLVQPGRSLRLSCAASGFTFSNAWMHWVRQAPGKGLEWVAQIKDKGNAYAAYYAPSVKGRFTISRDDSKNSIYLQMNSLKTEDTAVYYCHYVHYASISTVLPAFGVDAWGQGTTVTVSS
VL: DIVMTQSPLSLPVTPGEPASISCQASQELVHMNRNTYLHWYQQKPGQAPRLLIYKVSNRFPGVPDRFSGSGSGTDFTLKISRVEAEDVGVYYCAQGTSVPFTFGQGTKLEIK
B13: H183/L072 VH A60P (antibody, name in Kabat numbering, V domains shown)
VH: QVQLVESGGGLVQPGRSLRLSCAASGFTFSNAWMHWVRQAPGKGLEWVAQIKDKGNAYAAYYPPSVKGRFTISRDDSKNSIYLQMNSLKTEDTAVYYCHYVHYASASTVLPAFGVDAWGQGTTVTVSS
VL: DIVMTQSPLSLPVTPGEPASISCQASQELVHMNRNTYLHWYQQKPGQAPRLLIYKVSNRFPGVPDRFSGSGSGTDFTLKISRVEAEDVGVYYCAQGTSVPFTFGQGTKLEIK
B14: H183/L072 VH A60N (antibody, name in Kabat numbering, V domains shown)
VH: QVQLVESGGGLVQPGRSLRLSCAASGFTFSNAWMHWVRQAPGKGLEWVAQIKDKGNAYAAYYNPSVKGRFTISRDDSKNSIYLQMNSLKTEDTAVYYCHYVHYASASTVLPAFGVDAWGQGTTVTVSS
VL: DIVMTQSPLSLPVTPGEPASISCQASQELVHMNRNTYLHWYQQKPGQAPRLLIYKVSNRFPGVPDRFSGSGSGTDFTLKISRVEAEDVGVYYCAQGTSVPFTFGQGTKLEIK
B15: H183/L072 VH A100M (antibody, name in Kabat numbering, V domains shown)
VH: QVQLVESGGGLVQPGRSLRLSCAASGFTFSNAWMHWVRQAPGKGLEWVAQIKDKGNAYAAYYAPSVKGRFTISRDDSKNSIYLQMNSLKTEDTAVYYCHYVHYASMSTVLPAFGVDAWGQGTTVTVSS
VL: DIVMTQSPLSLPVTPGEPASISCQASQELVHMNRNTYLHWYQQKPGQAPRLLIYKVSNRFPGVPDRFSGSGSGTDFTLKISRVEAEDVGVYYCAQGTSVPFTFGQGTKLEIK
B16: H183/L072 VH A98L (antibody, name in Kabat numbering, V domains shown)
VH: QVQLVESGGGLVQPGRSLRLSCAASGFTFSNAWMHWVRQAPGKGLEWVAQIKDKGNAYAAYYAPSVKGRFTISRDDSKNSIYLQMNSLKTEDTAVYYCHYVHYLSASTVLPAFGVDAWGQGTTVTVSS
VL: DIVMTQSPLSLPVTPGEPASISCQASQELVHMNRNTYLHWYQQKPGQAPRLLIYKVSNRFPGVPDRFSGSGSGTDFTLKISRVEAEDVGVYYCAQGTSVPFTFGQGTKLEIK
B17: H183/L072 VH A100P (antibody, name in Kabat numbering, V domains shown)
VH: QVQLVESGGGLVQPGRSLRLSCAASGFTFSNAWMHWVRQAPGKGLEWVAQIKDKGNAYAAYYAPSVKGRFTISRDDSKNSIYLQMNSLKTEDTAVYYCHYVHYASPSTVLPAFGVDAWGQGTTVTVSS
VL: DIVMTQSPLSLPVTPGEPASISCQASQELVHMNRNTYLHWYQQKPGQAPRLLIYKVSNRFPGVPDRFSGSGSGTDFTLKISRVEAEDVGVYYCAQGTSVPFTFGQGTKLEIK
B18: H183/L072 VH A60V (antibody, name in Kabat numbering, V domains shown)
VH: QVQLVESGGGLVQPGRSLRLSCAASGFTFSNAWMHWVRQAPGKGLEWVAQIKDKGNAYAAYYVPSVKGRFTISRDDSKNSIYLQMNSLKTEDTAVYYCHYVHYASASTVLPAFGVDAWGQGTTVTVSS
VL: DIVMTQSPLSLPVTPGEPASISCQASQELVHMNRNTYLHWYQQKPGQAPRLLIYKVSNRFPGVPDRFSGSGSGTDFTLKISRVEAEDVGVYYCAQGTSVPFTFGQGTKLEIK
B19: H183/L072 VH A98I (antibody, name in Kabat numbering, V domains shown)
VH: QVQLVESGGGLVQPGRSLRLSCAASGFTFSNAWMHWVRQAPGKGLEWVAQIKDKGNAYAAYYAPSVKGRFTISRDDSKNSIYLQMNSLKTEDTAVYYCHYVHYISASTVLPAFGVDAWGQGTTVTVSS
VL: DIVMTQSPLSLPVTPGEPASISCQASQELVHMNRNTYLHWYQQKPGQAPRLLIYKVSNRFPGVPDRFSGSGSGTDFTLKISRVEAEDVGVYYCAQGTSVPFTFGQGTKLEIK

In the experiment the target is T1, Human CD3eg linker. Kind of experiment: Biacore SPR, vs template H183/L072.
As to B1, the “fold change of affinity” value was determined as 1.2 fold.
As for B2, the figure is 1 fold; as for B3, 1.1 fold.
Turning to B4, the “fold change of affinity” value stood at 1.3 fold.
As for B5, the figure is 1 fold; as for B6, 1 fold.
In the case of B7, the “fold change of affinity” value was 1 fold.
B8: the “fold change of affinity” value worked out at 0.9 fold.
B9: the “fold change of affinity” value was 0.7 fold.
As for B10, the figure is 1.2 fold.
As for B11, the figure is 0.2 fold.
The result for B12 reads 1.4 fold.
Consider B13, for which the “fold change of affinity” value worked out at 0.5 fold.
As for B14, the figure is 1 fold.
The result for B15 reads 1 fold; that for B16, 3.7 fold; that for B17, 1.3 fold.
Take B18: the “fold change of affinity” value is 1 fold.
As for B19, the figure is 4.6 fold.
